Test results reported in article PMC6144786, “DNA binding with a minimal scaffold: structure–function analysis of Lig E DNA ligases” (Nucleic Acids Research, 2018).

How the values were obtained:
[1] = molecular target: T1, Ame-Lig (Alteromonas mediterranea, UniProt Z9I348I3L4); experiment: molecular beacon ligation assay; format: biochemical; settings: 0.1 mM ATP, 300 nM nicked DNA substrate, 10 mM MgCl2, pH 8.0, 30 °C
T1 construct: predicted mature form, signal peptide omitted (cleavage between 21 and 22), codon-optimised synthetic gene in pDEST17; monomer in the asymmetric unit with nicked DNA
T1 sequence (Z9I348I3L4 2-297): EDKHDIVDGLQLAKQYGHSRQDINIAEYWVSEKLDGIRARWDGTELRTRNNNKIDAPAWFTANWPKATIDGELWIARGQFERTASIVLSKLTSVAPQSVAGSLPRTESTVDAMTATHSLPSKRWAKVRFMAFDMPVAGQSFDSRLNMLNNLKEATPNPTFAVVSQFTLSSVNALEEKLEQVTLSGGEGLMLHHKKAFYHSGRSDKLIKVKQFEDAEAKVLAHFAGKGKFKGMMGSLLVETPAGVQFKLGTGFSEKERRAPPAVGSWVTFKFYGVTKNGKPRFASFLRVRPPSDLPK

[2] = system: Psy-Lig N144A; experiment: MST; settings: 5' phosphate on S24 at nick, MST: 50 mM Tris, 100 mM NaCl, 1 mM DTT, 5 mM EDTA, 1 mM ATP, 0.5% Tween, 40 nM DNA, incubated 4 C, read 25 C, EMSA: 50 mM Tris pH 8.0, 50 mM NaCl, 0.
[3] = system: Psy-Lig K212A; experiment: MST; settings: 5' phosphate on S24 at nick, MST: 50 mM Tris, 100 mM NaCl, 1 mM DTT, 5 mM EDTA, 1 mM ATP, 0.5% Tween, 40 nM DNA, incubated 4 C, read 25 C, EMSA: 50 mM Tris pH 8.0, 50 mM NaCl, 0.
[4] = system: Psy-Lig R69A; experiment: MST; settings: 5' phosphate on S24 at nick, MST: 50 mM Tris, 100 mM NaCl, 1 mM DTT, 5 mM EDTA, 1 mM ATP, 0.5% Tween, 40 nM DNA, incubated 4 C, read 25 C, EMSA: 50 mM Tris pH 8.0, 50 mM NaCl, 0.
[5] = system: Psy-Lig K193A; experiment: MST; settings: 5' phosphate on S24 at nick, MST: 50 mM Tris, 100 mM NaCl, 1 mM DTT, 5 mM EDTA, 1 mM ATP, 0.5% Tween, 40 nM DNA, incubated 4 C, read 25 C, EMSA: 50 mM Tris pH 8.0, 50 mM NaCl, 0.
[6] = system: Psy-Lig WT (Lig E DNA ligase); experiment: MST; settings: 5' phosphate on S24 at nick, MST: 50 mM Tris, 100 mM NaCl, 1 mM DTT, 5 mM EDTA, 1 mM ATP, 0.5% Tween, 40 nM DNA, incubated 4 C, read 25 C, EMSA: 50 mM Tris pH 8.0, 50 mM NaCl, 0.
[7] = system: Psy-Lig K176A; experiment: MST; settings: 5' phosphate on S24 at nick, MST: 50 mM Tris, 100 mM NaCl, 1 mM DTT, 5 mM EDTA, 1 mM ATP, 0.5% Tween, 40 nM DNA, incubated 4 C, read 25 C, EMSA: 50 mM Tris pH 8.0, 50 mM NaCl, 0.
[8] = system: Psy-Lig K25A; experiment: MST; settings: 5' phosphate on S24 at nick, MST: 50 mM Tris, 100 mM NaCl, 1 mM DTT, 5 mM EDTA, 1 mM ATP, 0.5% Tween, 40 nM DNA, incubated 4 C, read 25 C, EMSA: 50 mM Tris pH 8.0, 50 mM NaCl, 0.
[9] = system: Psy-Lig S215A; experiment: MST; settings: 5' phosphate on S24 at nick, MST: 50 mM Tris, 100 mM NaCl, 1 mM DTT, 5 mM EDTA, 1 mM ATP, 0.5% Tween, 40 nM DNA, incubated 4 C, read 25 C, EMSA: 50 mM Tris pH 8.0, 50 mM NaCl, 0.
[10] = system: Psy-Lig R80A; experiment: MST; settings: 5' phosphate on S24 at nick, MST: 50 mM Tris, 100 mM NaCl, 1 mM DTT, 5 mM EDTA, 1 mM ATP, 0.5% Tween, 40 nM DNA, incubated 4 C, read 25 C, EMSA: 50 mM Tris pH 8.0, 50 mM NaCl, 0.

| Compound | molecular beacon ligation assay [1] | K half [2] [nM] | K half [3] [µM] | K half [4] [µM] | K half [5] [nM] | K half [6] [nM] | K half [7] [µM] | K half [8] [µM] | K half [9] [nM] | K half [10] [µM] |
| --- | --- | --- | --- | --- | --- | --- | --- | --- | --- | --- |
| Nc1ncnc2c1ncn2[C@@H]1O[C@H](COP(=O)(O)OP(=O)(O)OP(=O)(O)O)[C@@H](O)[C@H]1O [ATP] | Ligase activity of Ame-Lig and Psy-Lig mutants were measured by molecular beacon (MB) assay |  |  |  |  |  |  |  |  |  |
| AGGCCATGGCTGATATCGGA / TCCGAATTCGAGCTCCGTCG / CGACGGAGCTCGAATTCGGATCCGATATCAGCCATGGCCT [nicked 40-mer (MST)] |  | 2450 | 7.1 | 3.08 | 2550 | 980 | 5.17 | 3.3 | 1740 | 3.62 |
